Publication PMC10397247
Like-named read-outs stand apart in the source and are kept apart here.

Assays:
4H249-AA = target: T1, 4H249-AA; test: two-hybrid library CCmax;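 further: natural log of median RNA to DNA barcode read ratio; higher means stronger binding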
T1 chain: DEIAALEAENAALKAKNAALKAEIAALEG

4H2621-AA = target: T2, 4H2621-AA; test: two-hybrid library CCmax; conditions: mean of both orientations;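 further: natural log of median RNA to DNA barcode read ratio; higher means stronger binding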
T2 chain: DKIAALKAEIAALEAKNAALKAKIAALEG

4H3049-AA = target: T3, 4H3049-AA; test: two-hybrid library CCmax; conditions: mean of both orientations;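 further: natural log of median RNA to DNA barcode read ratio; higher means stronger binding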
T3 chain: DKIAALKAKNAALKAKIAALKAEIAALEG

4H3449-AA = target: T4, 4H3449-AA; test: two-hybrid library CCmax; conditions: mean of both orientations;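 further: natural log of median RNA to DNA barcode read ratio; higher means stronger binding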
T4 chain: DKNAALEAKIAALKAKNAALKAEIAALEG

4H2903-AA = target: T5, 4H2903-AA; test: two-hybrid library CCmax; conditions: mean of both orientations
T5 chain: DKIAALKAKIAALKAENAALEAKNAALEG

4H63-AA = target: T6, 4H63-AA; test: two-hybrid library CCmax; conditions: mean of both orientations
T6 chain: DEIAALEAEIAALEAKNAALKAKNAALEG

4H1384-AA = target: T7, 4H1384-AA; test: two-hybrid library CCmax
T7 chain: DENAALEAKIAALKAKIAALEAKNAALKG

4H2580-AA = target: T8, 4H2580-AA; test: two-hybrid library CCmax; conditions: mean of both orientations
T8 chain: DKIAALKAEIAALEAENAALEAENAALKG

4H380-AA = target: T9, 4H380-AA; test: two-hybrid library CCmax; conditions: mean of both orientations
T9 chain: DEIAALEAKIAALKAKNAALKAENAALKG

4H446-AA = target: T10, 4H446-AA; test: two-hybrid library CCmax; conditions: mean of both orientations
T10 chain: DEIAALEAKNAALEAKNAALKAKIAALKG

4H3915-AA = target: T11, 4H3915-AA; test: two-hybrid library CCmax; conditions: mean of both orientations
T11 chain: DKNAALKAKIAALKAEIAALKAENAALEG

4H1449-AA = target: T12, 4H1449-AA; test: two-hybrid library CCmax; conditions: mean of both orientations
T12 chain: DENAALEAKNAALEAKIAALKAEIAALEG

4H1878-AA = target: T13, 4H1878-AA; test: two-hybrid library CCmax; conditions: mean of both orientations
T13 chain: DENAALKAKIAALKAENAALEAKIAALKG

4H2961-AA = target: T14, 4H2961-AA; test: two-hybrid library CCmax; conditions: mean of both orientations
T14 chain: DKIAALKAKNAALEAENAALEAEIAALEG

4H3974-AA = target: T15, 4H3974-AA; test: two-hybrid library CCmax; conditions: mean of both orientations
T15 chain: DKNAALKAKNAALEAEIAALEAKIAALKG

4H341-AA = target: T16, 4H341-AA; test: two-hybrid library CCmax; conditions: mean of both orientations
T16 chain: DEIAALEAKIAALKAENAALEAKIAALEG

4H324-AA = target: T17, 4H324-AA; test: two-hybrid library CCmax; conditions: mean of both orientations
T17 chain: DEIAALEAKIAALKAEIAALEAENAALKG

4H2760-AA = target: T18, 4H2760-AA; test: two-hybrid library CCmax; conditions: mean of both orientations
T18 chain: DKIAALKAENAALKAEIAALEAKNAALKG

4H1593-AA = target: T19, 4H1593-AA; test: two-hybrid library CCmax; conditions: mean of both orientations
T19 chain: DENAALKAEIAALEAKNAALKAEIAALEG

4H2947-AA = target: T20, 4H2947-AA; test: two-hybrid library CCmax; conditions: mean of both orientations
T20 chain: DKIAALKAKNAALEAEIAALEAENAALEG

4H3777-AA = target: T21, 4H3777-AA; test: two-hybrid library CCmax; conditions: mean of both orientations
T21 chain: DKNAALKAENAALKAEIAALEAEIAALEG

4H2604-AA = target: T22, 4H2604-AA; test: two-hybrid library CCmax; conditions: mean of both orientations
T22 chain: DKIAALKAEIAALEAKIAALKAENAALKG

4H2774-AA = target: T23, 4H2774-AA; test: two-hybrid library CCmax; conditions: mean of both orientations
T23 chain: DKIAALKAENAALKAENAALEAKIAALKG

4H235-AA = target: T24, 4H235-AA; test: two-hybrid library CCmax; conditions: mean of both orientations
T24 chain: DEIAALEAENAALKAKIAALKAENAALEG

4H3619-AA = target: T25, 4H3619-AA; test: two-hybrid library CCmax; conditions: mean of both orientations
T25 chain: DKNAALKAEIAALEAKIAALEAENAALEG

4H3629-AA = target: T26, 4H3629-AA; test: two-hybrid library CCmax; conditions: mean of both orientations
T26 chain: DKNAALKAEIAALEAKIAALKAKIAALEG

4H3094-AA = target: T27, 4H3094-AA; test: two-hybrid library CCmax; conditions: mean of both orientations
T27 chain: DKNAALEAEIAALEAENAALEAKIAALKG

4H432-AA = target: T28, 4H432-AA; test: two-hybrid library CCmax; conditions: mean of both orientations
T28 chain: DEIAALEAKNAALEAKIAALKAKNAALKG

4H1558-AA = target: T29, 4H1558-AA; test: two-hybrid library CCmax; conditions: mean of both orientations
T29 chain: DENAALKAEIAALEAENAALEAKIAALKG

4H1360-AA = target: T30, 4H1360-AA; test: two-hybrid library CCmax; conditions: mean of both orientations
T30 chain: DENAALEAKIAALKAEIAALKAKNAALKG

4H3939-AA = target: T31, 4H3939-AA; test: two-hybrid library CCmax; conditions: mean of both orientations
T31 chain: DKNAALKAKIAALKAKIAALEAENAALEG

4H1454-AA = target: T32, 4H1454-AA; test: two-hybrid library CCmax; conditions: mean of both orientations
T32 chain: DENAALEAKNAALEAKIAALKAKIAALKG

4H2728-AA = target: T33, 4H2728-AA; test: two-hybrid library CCmax; conditions: mean of both orientations
T33 chain: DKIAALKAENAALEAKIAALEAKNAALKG

4H3969-AA = target: T34, 4H3969-AA; test: two-hybrid library CCmax; conditions: mean of both orientations
T34 chain: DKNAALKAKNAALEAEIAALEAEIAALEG

4H3595-AA = target: T35, 4H3595-AA; test: two-hybrid library CCmax; conditions: mean of both orientations
T35 chain: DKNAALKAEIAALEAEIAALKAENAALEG

4H2699-AA = target: T36, 4H2699-AA; test: two-hybrid library CCmax; conditions: mean of both orientations
T36 chain: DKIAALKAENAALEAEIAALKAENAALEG

4H3414-AA = target: T37, 4H3414-AA; test: two-hybrid library CCmax; conditions: mean of both orientations
T37 chain: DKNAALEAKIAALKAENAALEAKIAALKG

4H3782-AA = target: T38, 4H3782-AA; test: two-hybrid library CCmax; conditions: mean of both orientations
T38 chain: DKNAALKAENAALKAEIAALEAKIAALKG

4H3129-AA = target: T39, 4H3129-AA; test: two-hybrid library CCmax; conditions: mean of both orientations
T39 chain: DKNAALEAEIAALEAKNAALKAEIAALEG

4H464-AA = target: T40, 4H464-AA; test: two-hybrid library CCmax; conditions: mean of both orientations
T40 chain: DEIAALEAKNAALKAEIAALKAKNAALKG

4H1913-AA = target: T41, 4H1913-AA; test: two-hybrid library CCmax; conditions: mean of both orientations
T41 chain: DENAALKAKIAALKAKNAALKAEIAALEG

P2-AA-1HGe-A = target: T42, P2-AA-1HGe-A; test: two-hybrid library CCmax
T42 chain: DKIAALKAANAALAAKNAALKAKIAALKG

4H483-AA = target: T43, 4H483-AA; test: two-hybrid library CCmax; conditions: mean of both orientations
T43 chain: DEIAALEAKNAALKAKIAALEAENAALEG

4H3070-bH = target: T44, 4H3070-bH; test: two-hybrid library CCNG1; conditions: mean of both orientations
T44 chain: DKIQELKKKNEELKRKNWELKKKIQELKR

4H3632-bH = target: T45, 4H3632-bH; test: two-hybrid library CCNG1
T45 chain: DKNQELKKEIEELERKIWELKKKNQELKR

4H342-bH = target: T46, 4H342-bH; test: two-hybrid library CCNG1
T46 chain: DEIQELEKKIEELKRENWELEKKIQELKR

4H496-bH = target: T47, 4H496-bH; test: two-hybrid library CCNG1
T47 chain: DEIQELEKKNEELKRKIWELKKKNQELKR

4H4038-bN = target: T48, 4H4038-bN; test: two-hybrid library CCNG1
T48 chain: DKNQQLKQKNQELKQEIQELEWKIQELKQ

4H3601-bN = target: T49, 4H3601-bN; test: two-hybrid library CCNG1
T49 chain: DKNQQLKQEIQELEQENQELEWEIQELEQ

4H3592-bN = target: T50, 4H3592-bN; test: two-hybrid library CCNG1
T50 chain: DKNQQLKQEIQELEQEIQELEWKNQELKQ

4H3907-bN = target: T51, 4H3907-bN; test: two-hybrid library CCNG1
T51 chain: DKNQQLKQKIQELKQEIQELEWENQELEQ

DENAALEAKIAALKAKIAALEAKNAALKG [4H1384-AA]
interaction score (4H249-AA): -1.81 | interaction score (4H2621-AA): -0.862 | interaction score (4H3049-AA): -0.361 | interaction score (4H3449-AA): -1.82 | interaction score (4H2903-AA): -0.437 | interaction score (4H63-AA): -0.475 | interaction score (4H1384-AA): 0.25 | interaction score (4H2580-AA): 0.35 | interaction score (4H380-AA): -1.4 | interaction score (4H446-AA): -2.33 | interaction score (4H3915-AA): -0.264 | interaction score (4H1449-AA): -1.1 | interaction score (4H1878-AA): -1.08 | interaction score (4H2961-AA): -1.37 | interaction score (4H3974-AA): 0.121 | interaction score (4H341-AA): -0.177 | interaction score (4H324-AA): 0.82 | interaction score (4H2760-AA): -1.74 | interaction score (4H1593-AA): -1.48 | interaction score (4H2947-AA): -1.05 | interaction score (4H3777-AA): 0.578 | interaction score (4H2604-AA): 1.45 | interaction score (4H2774-AA): -1.81 | interaction score (4H235-AA): -1.3 | interaction score (4H3619-AA): 2.13 | interaction score (4H3629-AA): 0.973 | interaction score (4H3094-AA): -0.731 | interaction score (4H432-AA): -1.33

DENAALEAKIAALKAEIAALEAKIAALEG [4H1349-AA]
interaction score (4H249-AA; mean of both orientations): -2.14 | interaction score (4H1558-AA): -0.218 | interaction score (4H1360-AA): 0.392 | interaction score (4H3939-AA): 0.491 | interaction score (4H1454-AA): -0.224 | interaction score (4H2728-AA): -1.04 | interaction score (4H2621-AA): 2.18 | interaction score (4H3049-AA): -0.0176 | interaction score (4H3969-AA): -1.13 | interaction score (4H3449-AA): -0.531 | interaction score (4H2903-AA): -0.278 | interaction score (4H63-AA): -0.724 | interaction score (4H1384-AA; mean of both orientations): 1.03 | interaction score (4H3595-AA): 1.05 | interaction score (4H2580-AA): -0.799 | interaction score (4H380-AA): -0.754 | interaction score (4H2699-AA): -1.39 | interaction score (4H446-AA): -1.37 | interaction score (4H3915-AA): 0.312 | interaction score (4H1449-AA): -0.154 | interaction score (4H3414-AA): -0.92 | interaction score (4H1878-AA): -0.906 | interaction score (4H2961-AA): -2.4 | interaction score (4H3974-AA): 0.171 | interaction score (4H341-AA): -0.142 | interaction score (4H324-AA): 1.84 | interaction score (4H2760-AA): -0.562 | interaction score (4H1593-AA): 0.813 | interaction score (4H3782-AA): 0.414 | interaction score (4H3129-AA): 0.123 | interaction score (4H2947-AA): -1.49 | interaction score (4H464-AA): -0.554 | interaction score (4H1913-AA): -0.124 | interaction score (4H3777-AA): -0.808 | interaction score (4H2604-AA): 1.42 | interaction score (4H2774-AA): -2.01 | interaction score (P2-AA-1HGe-A): -1.79 | interaction score (4H235-AA): -2.02 | interaction score (4H483-AA): -1.07 | interaction score (4H3619-AA): 0.504 | interaction score (4H3629-AA): 2.08 | interaction score (4H3094-AA): -0.703 | interaction score (4H432-AA): -1.21

DKIQELKKKNEELKRKNWELKKKIQELKR [4H3070-bH]
interaction score (4H3070-bH): 0.665 | interaction score (4H3632-bH): -0.214 | interaction score (4H342-bH): 1.49 | interaction score (4H496-bH): -0.307

DKNQQLKQEIQELEQEIQELEWKNQELKQ [4H3592-bN]
interaction score (4H4038-bN): -0.372 | interaction score (4H3601-bN): -0.0551 | interaction score (4H3592-bN): -0.397 | interaction score (4H3907-bN): -1.47
